Data published in patent US20030228303A1.

Legend:
[1] = target: denatured SHaPrP 27-30 (Syrian hamster) (UniProt P04273); test: ELISA on denatured PrP 27-30 (FIG. 10)
[2] = target: non-denatured SHaPrP 27-30 (Syrian hamster) (UniProt P04273); test: ELISA on non-denatured PrP 27-30 (FIG. 9)
[3] = target: non-denatured SHaPrP 27-30 (Syrian hamster) (UniProt P04273); test: estimated from immunoprecipitation (FIG. 12)

3F4 Fab
Ka [1]: 1e+08 M⁻¹ | EC50 [2]: 2 µg/mL | Ka [3]: < 1e+07 M⁻¹
